Reference: patent US20040005550A1, “Methods and compositions useful for targeting activated vitronectin receptor alphavbeta3” (The Scripps Research Institute, priority 1998, published 2004)

How the values were obtained:
[1] = target: human αvβ3 integrin on cells (human) (UniProt P06756); experiment: flow cytometry, AP5-treated αvβ3-CHO cells; 1 µM Integrilin against WOW-1 Fab
[2] = target: human αvβ3 integrin on cells (human) (UniProt P06756); experiment: flow cytometry, AP5-treated αvβ3-CHO cells; 1 µM Integrilin against aPB
[3] = target: purified αIIbβ3 from human platelets (human) (UniProt P08514); experiment: ELISA on purified integrin, 50 µM MnCl2; half-maximal binding
[4] = target: human αvβ3 integrin on cells (human) (UniProt P06756); experiment: flow cytometry binding isotherm, αvβ3-CHO cells, activating antibody AP5
[5] = target: human αvβ3 integrin on cells (human) (UniProt P06756); experiment: flow cytometry binding isotherm, unstimulated JY cells, one-site fit
[6] = target: human αvβ3 integrin on cells (human) (UniProt P06756); experiment: flow cytometry, JY cells, 100 nM phorbol myristate acetate for 15 min
[7] = target: purified αvβ3 receptors from human placenta (human) (UniProt P06756); experiment: ELISA on purified integrin, 50 µM MnCl2; half-maximal binding
[8] = target: human αvβ3 integrin on cells (human) (UniProt P06756); experiment: flow cytometry binding isotherm, JY cells stimulated with phorbol myristate acetate, one-site fit
[9] = target: human αvβ3 integrin on cells (human) (UniProt P06756); experiment: unstimulated B-lymphoblastoid cells; summary in the description, differs from the 2,600 nM of Example 8
[10] = target: human αvβ3 integrin on cells (human) (UniProt P06756); experiment: flow cytometry binding isotherm, αvβ3-CHO cells, no treatment
[11] = target: human αvβ3 integrin on cells (human) (UniProt P06756); experiment: flow cytometry binding isotherms, JY cells

Sequence of human αvβ3 integrin on cells (human) (P06756 31-1048, chain 1 of 2): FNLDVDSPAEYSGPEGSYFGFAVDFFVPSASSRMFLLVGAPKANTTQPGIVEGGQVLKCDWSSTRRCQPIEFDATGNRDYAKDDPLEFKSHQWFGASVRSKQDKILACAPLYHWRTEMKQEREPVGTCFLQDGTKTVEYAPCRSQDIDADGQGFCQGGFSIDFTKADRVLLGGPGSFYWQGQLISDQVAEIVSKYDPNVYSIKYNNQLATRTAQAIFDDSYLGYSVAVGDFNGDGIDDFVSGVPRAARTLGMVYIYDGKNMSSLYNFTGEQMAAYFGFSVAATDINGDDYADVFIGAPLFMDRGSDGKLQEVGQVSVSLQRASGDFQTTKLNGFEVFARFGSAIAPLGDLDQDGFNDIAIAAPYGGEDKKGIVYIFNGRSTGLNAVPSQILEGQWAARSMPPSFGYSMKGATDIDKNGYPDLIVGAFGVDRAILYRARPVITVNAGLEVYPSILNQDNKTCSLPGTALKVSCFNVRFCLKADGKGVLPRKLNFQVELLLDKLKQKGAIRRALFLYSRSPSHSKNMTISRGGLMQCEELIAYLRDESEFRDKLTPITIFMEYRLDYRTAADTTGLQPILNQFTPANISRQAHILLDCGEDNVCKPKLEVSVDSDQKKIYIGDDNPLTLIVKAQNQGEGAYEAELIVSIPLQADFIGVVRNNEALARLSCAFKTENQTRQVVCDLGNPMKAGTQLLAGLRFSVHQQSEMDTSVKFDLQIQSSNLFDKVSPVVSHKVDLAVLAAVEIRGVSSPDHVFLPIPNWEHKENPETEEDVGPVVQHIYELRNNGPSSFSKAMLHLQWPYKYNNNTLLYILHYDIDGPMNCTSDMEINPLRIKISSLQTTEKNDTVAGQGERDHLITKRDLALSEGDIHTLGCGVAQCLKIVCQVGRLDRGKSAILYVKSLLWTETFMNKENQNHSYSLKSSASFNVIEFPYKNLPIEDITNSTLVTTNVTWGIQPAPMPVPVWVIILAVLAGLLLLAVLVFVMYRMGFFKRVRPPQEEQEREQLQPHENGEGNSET
Sequence of human αvβ3 integrin on cells (human) (P05106 27-788, chain 2 of 2, further chain): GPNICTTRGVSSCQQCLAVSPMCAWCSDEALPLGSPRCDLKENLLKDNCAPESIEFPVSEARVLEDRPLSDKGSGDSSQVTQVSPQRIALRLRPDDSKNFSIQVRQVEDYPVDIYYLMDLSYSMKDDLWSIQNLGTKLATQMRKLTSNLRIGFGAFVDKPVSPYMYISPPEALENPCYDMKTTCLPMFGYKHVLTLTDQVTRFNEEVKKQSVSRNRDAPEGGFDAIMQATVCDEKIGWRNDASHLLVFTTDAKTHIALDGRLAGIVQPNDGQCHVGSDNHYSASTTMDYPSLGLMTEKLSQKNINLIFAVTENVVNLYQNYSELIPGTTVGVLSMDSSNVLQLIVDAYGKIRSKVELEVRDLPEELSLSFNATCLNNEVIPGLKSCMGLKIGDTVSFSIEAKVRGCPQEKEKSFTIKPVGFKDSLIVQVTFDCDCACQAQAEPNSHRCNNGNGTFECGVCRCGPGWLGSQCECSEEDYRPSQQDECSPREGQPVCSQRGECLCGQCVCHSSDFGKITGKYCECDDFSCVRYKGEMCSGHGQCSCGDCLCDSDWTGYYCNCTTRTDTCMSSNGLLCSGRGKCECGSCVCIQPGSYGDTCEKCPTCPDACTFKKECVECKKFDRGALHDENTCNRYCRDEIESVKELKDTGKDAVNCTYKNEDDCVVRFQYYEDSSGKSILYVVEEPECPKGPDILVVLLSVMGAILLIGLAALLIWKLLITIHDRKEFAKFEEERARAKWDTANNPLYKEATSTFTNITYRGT
Sequence of purified αvβ3 receptors from human placenta (human) (P06756 31-1048 limits assumed, chain 1 of 2): as the sequence (P06756 31-1048, chain 1 of 2) above
Sequence of purified αvβ3 receptors from human placenta (human) (P05106 27-788 limits assumed, chain 2 of 2, further chain): as the sequence (P05106 27-788, chain 2 of 2, further chain) above

Substance: Integrilin (peptide)
- percent inhibition of WOW-1 Fab binding [1]: < 20%
- percent inhibition of aPB binding [2]: < 20%

Substance: PAC1 Fab
- EC50 [3]: 50 nM

Substance: WOW-1 Fab
- Bmax [4]: 65 units
- Kd [4]: 119 nM
- Kd [5]: 2600 nM
- maximal binding (arbitrary fluorescence units) [5]: 24.8
- fold increase in specific binding with phorbol myristate acetate against no agonist [6]: 2.4 fold
- EC50 [7]: 40 nM
- Kd [8]: 80 nM
- maximal binding [8]: 23.5 units
- Kd [9]: 2400 nM
- Bmax [10]: 62 units
- Kd [10]: 514 nM
- fold increase in binding affinity with phorbol myristate acetate against unstimulated cells [11]: > 30 fold
